The series concerns the target T1, HA-CEBPD (C/EBP delta, NF-IL6beta) (UniProt P49716 1-269).
T1 sequence: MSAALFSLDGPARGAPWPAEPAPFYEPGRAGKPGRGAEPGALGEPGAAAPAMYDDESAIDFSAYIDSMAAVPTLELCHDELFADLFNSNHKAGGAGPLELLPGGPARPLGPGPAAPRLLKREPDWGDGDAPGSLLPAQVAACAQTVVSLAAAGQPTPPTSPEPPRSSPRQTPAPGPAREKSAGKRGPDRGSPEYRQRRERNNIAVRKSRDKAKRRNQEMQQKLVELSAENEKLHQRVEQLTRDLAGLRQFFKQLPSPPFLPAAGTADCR
The experiment in a line: EMSA, supershift. In general terms: In EMSA bound probe runs differently from free probe, usually more slowly.

B1: PTX3 promoter site 1 (dsDNA)
DNA 1: TTTAATATTGTGCAACTTCCAC
DNA 2: GTGGAAGTTGCACAATATTAAA
Consider B1, for which the binding result is reported as “binds”.

B2: PTX3 promoter site 5 (dsDNA)
DNA 1: TAAAGGGTTGTGAAATAATAAC
DNA 2: GTTATTATTTCACAACCCTTTA
For the molecule B2, the binding result is listed as “binds”.

For the origin of these results see publication PMC6309870.
